In patent US20090325869A1 (CHILDREN S HOSPITAL AND RESEARCH CENTER OAKLAND, published 2009):

Molecular target: T1, Ferritin H (frog), wild type, protein nanocage (frog, UniProt P07229 2-176)
T1 sequence (looked up): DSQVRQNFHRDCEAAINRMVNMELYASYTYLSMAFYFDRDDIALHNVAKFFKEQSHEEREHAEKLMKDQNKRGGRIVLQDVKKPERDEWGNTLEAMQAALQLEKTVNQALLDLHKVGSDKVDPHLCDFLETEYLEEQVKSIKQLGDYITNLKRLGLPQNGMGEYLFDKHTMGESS
Experiment: cell-based or functional assay

Binder: HSNTYYFPKGG [Peptide 1, synthetic undecapeptide HSNTYYFPKGG]
- rate of ferritin demineralization, fold against wild type ferritin H without peptide: 3.3 fold
